In patent US20080058263A1 (published 2008):
Numbering of substitutions follows the chain as printed.

T1: VEGFR-3-Fc (UniProt P35916 25-328)
T1 construct: domain: first three Ig domains; conditioned supernatant of 293T cells; also called VEGFR-3-Fc fusion protein; not shown: Fc fragment of the pIg vector
T1 sequence (looked up): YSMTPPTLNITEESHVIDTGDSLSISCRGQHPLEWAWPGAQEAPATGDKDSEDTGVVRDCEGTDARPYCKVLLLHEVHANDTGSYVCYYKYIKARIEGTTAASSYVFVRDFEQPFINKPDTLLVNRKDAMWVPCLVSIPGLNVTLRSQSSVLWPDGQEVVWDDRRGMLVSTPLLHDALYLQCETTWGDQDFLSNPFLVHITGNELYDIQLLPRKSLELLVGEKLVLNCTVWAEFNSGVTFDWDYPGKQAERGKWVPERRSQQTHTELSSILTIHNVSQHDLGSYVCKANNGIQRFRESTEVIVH

B1: 12-9 (ligand)
chain: GQNHHEVVKFMDVYQRSYCHPIETLVDIFQEFGVATNTFFKPPCVSVYRCGGCCNDEGLECVPTEESNITMQIMRITVPLSQGPKPVTISFLQHNKCECRPKKDLVFEQKLISEEDLNSAVDHHHHHH
B2: 12-11 (ligand)
chain: B1 chain with D56S, E60Q
notes: also called super-VEGF
B3: 12-13 (ligand)
chain: B1 chain with L92A, Q93N, N95T, K96S, E98R, R100M, P101S, K103L, D104N
notes: clone acquired a point mutation, Asp to Asn at the last C-terminal amino acid of the hybrid
B4: 12-15 (ligand)
chain: B1 chain with D56S, E60Q, L92A, Q93N, N95T, K96S, E98R, R100M, P101S, K103L
B5: 63-11 (ligand)
chain: GQNHHEVVKFMDVYQRSYCHPREVCIDVGKEYPDEIEYIFKPPCVSVYRCGGCCNSEGLQCVPTEESNITMQIMRITVPLSQGPKPVTISFLQHNKCECRPKKD
B6: 63-15 (ligand)
chain: B5 chain with L92A, Q93N, N95T, K96S, E98R, R100M, P101S, K103L
B7: 64-15 (ligand)
chain: GQNHHEVVKFMDVYQRSYCHPREVCIDVGKEFGVATNTFFKPSCVPLMRCGGCCNSEGLQCVPTEESNITMQIMRITVPLSQGPKPVTISFANHTSCRCMSKLD
B8: 64-13 (ligand)
chain: B7 chain with S56D, Q60E
B9: 63-13 (ligand)
chain: B5 chain with S56D, Q60E, L92A, Q93N, N95T, K96S, E98R, R100M, P101S, K103L
B10: 81-9 (ligand)
chain: AHYNTEILKFMDVYQRSYCHPIETLVDIFQEYPDEIEYIFKPSCVPLMRCGGCCNDEGLECVPTEESNITMQIMRITVPLSQGPKPVTISFLQHNKCECRPKKD
B11: 81-13 (ligand)
chain: B10 chain with L92A, Q93N, N95T, K96S, E98R, R100M, P101S, K103L
B12: 81-11 (ligand)
chain: B10 chain with D56S, E60Q
B13: 12-3 (ligand)
chain: GQNHHEVVKFMDVYQRSYCHPIETLVDIFQEFGVATNTFFKPPCVSVYRCGGCCNSEGLQCVPTEESNITMQIMRIKPHQGQHIGEMSFLQHNKCECRPKKDLVFEQKLISEEDLNSAVDHHHHHH
B14: 12-7 (ligand)
chain: B13 chain with L90A, Q91N, N93T, K94S, E96R, R98M, P99S, K101L
notes: also called super-VEGF
B15: 23-6 (ligand)
chain: AHYNTEILKSIDNEWRKTQCMPREVCIDVGKEYPDEIEYIFKPPCVSVYRCGGCCNDEGLECMNTSTSYLSKTLFEIKPHQGQHIGEMSFANHTSCRCMSKLD
B16: 73-8 (ligand)
chain: B15 chain with A1G, H2Q, Y3N, N4H, T5H, I7V, L8V, D57S, E61Q
B17: 21-6 (ligand)
chain: B15 chain with P44S, S47P, V48L, Y49M
B18: 23-4 (ligand)
chain: B15 chain with D57S, E61Q, A91L, N92Q, T94N, S95K, R97E, M99R, S100P, L102K
B19: 53-8 (ligand)
chain: B15 chain with R23I, V25T, C26L, I27V, V29I, G30F, K31Q, D57S, E61Q
B20: 73-6 (ligand)
chain: B15 chain with A1G, H2Q, Y3N, N4H, T5H, I7V, L8V
B21: 23-2 (ligand)
chain: B15 chain with A91L, N92Q, T94N, S95K, R97E, M99R, S100P, L102K
B22: 21-2 (ligand)
chain: AHYNTEILKSIDNEWRKTQCMPREVCIDVGKEYPDEIEYIFKPSCVPLMRCGGCCNDEGLECMNTSTSYLSKTLFEIKPHQGQHIGEMSFLQHNKCECRPKKD
B23: 22-8 (ligand)
chain: B15 chain with Y33F, P34G, D35V, E36A, I37T, E38N, Y39T, I40F, D57S, E61Q
B24: 22-6 (ligand)
chain: B15 chain with Y33F, P34G, D35V, E36A, I37T, E38N, Y39T, I40F
B25: 51-6 (ligand)
chain: AHYNTEILKSIDNEWRKTQCMPIETLVDIFQEYPDEIEYIFKPSCVPLMRCGGCCNDEGLECMNTSTSYLSKTLFEIKPHQGQHIGEMSFANHTSCRCMSKLD
B26: 21-8 (ligand)
chain: B15 chain with P44S, S47P, V48L, Y49M, D57S, E61Q
B27: 23-8 (ligand)
chain: B15 chain with D57S, E61Q
B28: 71-6 (ligand)
chain: GQNHHEVVKSIDNEWRKTQCMPREVCIDVGKEYPDEIEYIFKPSCVPLMRCGGCCNDEGLECMNTSTSYLSKTLFEIKPHQGQHIGEMSFANHTSCRCMSKLD
B29: 53-6 (ligand)
chain: B25 chain with S44P, P47S, L48V, M49Y
B30: 24-6 (ligand)
chain: AHYNTEILKSIDNEWRKTQCMPREVCIDVGKEFGVATNTFFKPSCVPLMRCGGCCNDEGLECMNTSTSYLSKTLFEIKPHQGQHIGEMSFANHTSCRCMSKLD
B31: 12-14 (ligand)
chain: GQNHHEVVKFMDVYQRSYCHPIETLVDIFQEFGVATNTFFKPPCVSVYRCGGCCNDEGLECMNTSTSYLSKTLFEITVPLSQGPKPVTISFANHTSCRCMSKLDL

target: T1, VEGFR-3-Fc; assay: receptor-Fc IP
How it was run: (§1)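 Binding of ligand from sample supernatant measured by pentahistidine-antibody immunoprecipitation. IP mix: PBS with 1.5% BSA, 0.06% Tween 20, 3 μg/ml heparin and 400 ng/ml fusion protein, added 1:2 to sample supernatant.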

binding result | Binder
binds | B1
binds | B2
binds | B3
binds | B4
no binding | B5
no binding | B6
no binding | B7
no binding | B8
no binding | B9
no binding | B10
no binding | B11
no binding | B12
no binding | B13
binds | B14
no binding | B15
no binding | B16

binding result | Binder
no binding | B17
no binding | B18
no binding | B19
no binding | B20
no binding | B21
no binding | B22
binds | B23
binds | B24
no binding | B25
no binding | B26
no binding | B27
no binding | B28
no binding | B29
no binding | B30
binds | B31

target: T2, VEGFR-2-Fc (UniProt P35968 20-322); assay: receptor-Fc IP
T2 construct: domain: first 3 Ig domains; conditioned supernatant of 293T cells; also called VEGFR-2-Fc fusion protein; not shown: Fc fragment of the pIg vector
How it was run: as §1

T2 sequence (P35968 20-322): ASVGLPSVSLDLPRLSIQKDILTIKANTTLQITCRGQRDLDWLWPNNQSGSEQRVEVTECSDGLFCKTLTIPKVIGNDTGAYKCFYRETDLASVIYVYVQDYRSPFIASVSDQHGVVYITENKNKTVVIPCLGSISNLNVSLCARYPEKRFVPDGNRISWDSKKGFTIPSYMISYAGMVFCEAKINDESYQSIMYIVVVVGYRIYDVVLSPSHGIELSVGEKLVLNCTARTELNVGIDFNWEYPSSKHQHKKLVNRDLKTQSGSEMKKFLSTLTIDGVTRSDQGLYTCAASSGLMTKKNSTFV

binding result | Binder
no binding | B1
binds | B2
no binding | B3
binds | B4
no binding | B5
no binding | B6
no binding | B7
no binding | B8
no binding | B9
no binding | B10
no binding | B11
binds | B12
binds | B13
binds | B14
no binding | B15
no binding | B16

binding result | Binder
no binding | B17
no binding | B18
no binding | B19
no binding | B20
no binding | B21
no binding | B22
binds | B23
binds | B24
no binding | B25
no binding | B26
no binding | B27
no binding | B28
no binding | B29
no binding | B30
no binding | B31

target: T3, VEGFR-1-Fc (UniProt P17948 27-338); assay: receptor-Fc IP
T3 construct: domain: first three Ig domains; expressed in Drosophila S2 cells, purified on Protein A sepharose; also called VEGFR-1-Fc fusion protein; not shown: Fc fragment from the Signal-pIgPlus vector
How it was run: as §1

T3 sequence (P17948 27-338): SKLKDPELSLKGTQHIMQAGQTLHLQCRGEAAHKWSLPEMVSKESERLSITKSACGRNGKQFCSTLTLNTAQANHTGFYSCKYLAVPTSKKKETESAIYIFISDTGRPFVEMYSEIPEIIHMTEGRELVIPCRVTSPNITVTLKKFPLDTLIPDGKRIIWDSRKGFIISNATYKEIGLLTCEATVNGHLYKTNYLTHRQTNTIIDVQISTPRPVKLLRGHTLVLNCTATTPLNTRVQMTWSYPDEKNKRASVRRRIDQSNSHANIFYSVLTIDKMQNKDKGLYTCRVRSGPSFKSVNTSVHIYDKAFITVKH

binding result | Binder
binds | B1
binds | B2
binds | B3
no binding | B4
no binding | B5
no binding | B6
no binding | B7
no binding | B8
no binding | B9
binds | B10
binds | B11
binds | B12
binds | B13
binds | B14
no binding | B15
no binding | B16

binding result | Binder
no binding | B17
no binding | B18
no binding | B19
no binding | B20
no binding | B21
no binding | B22
no binding | B23
no binding | B24
no binding | B25
no binding | B26
no binding | B27
no binding | B28
no binding | B29
no binding | B30
no binding | B31
